# Measured values published in article PMC9133466.
# Where no end group is shown, it is not given here. [ ]: non-standard residue; d: D form.
# B1: D1 (peptide)
# peptide: [dQ][dS][dH][dY][dR][dH][dI][dS][dP][dA][dQ][dV]-NH2
# modifications: N-terminus assumed
# SMILES: CC[C@@H](C)[C@@H](NC(=O)[C@@H](Cc1c[nH]cn1)NC(=O)[C@@H](CCCNC(=N)N)NC(=O)[C@@H](Cc1ccc(O)cc1)NC(=O)[C@@H](Cc1c[nH]cn1)NC(=O)[C@@H](CO)NC(=O)[C@H](N)CCC(N)=O)C(=O)N[C@H](CO)C(=O)N1CCC[C@@H]1C(=O)N[C@H](C)C(=O)N[C@H](CCC(N)=O)C(=O)N[C@@H](C(N)=O)C(C)C
# B2: RD2 (peptide)
# peptide: [dP][dT][dL][dH][dT][dH][dN][dR][dR][dR][dR][dR]-NH2
# modifications: N-terminus assumed
# SMILES: CC(C)C[C@@H](NC(=O)[C@H](NC(=O)[C@H]1CCCN1)[C@H](C)O)C(=O)N[C@H](Cc1c[nH]cn1)C(=O)N[C@@H](C(=O)N[C@H](Cc1c[nH]cn1)C(=O)N[C@H](CC(N)=O)C(=O)N[C@H](CCCNC(=N)N)C(=O)N[C@H](CCCNC(=N)N)C(=O)N[C@H](CCCNC(=N)N)C(=O)N[C@H](CCCNC(=N)N)C(=O)N[C@H](CCCNC(=N)N)C(N)=O)[C@H](C)O
# What was measured:
# [1] = biological target: amyloid beta (Aβ) of human brain homogenate (human (endogenous in human brain))
# [2] = biological target: amyloid beta (Aβ) of human brain homogenate (human (endogenous in human brain)); remark: listed apart in the source
# [3] = biological target: amyloid beta (Aβ) of human brain homogenate (human (endogenous in human brain)); remark: listed apart in the source
# [4] = biological target: amyloid beta (Aβ) of APP/PS1 mouse brain homogenate (human)
binder,measurement,setting,value
B1,"reduction of Aβ oligomer signal by sFIDA; human AD brain homogenate AD2 diluted 1:40 (similar at 1:10 and 1:20), 0.31-20 μM D1, 24 h",[1],27%
B2,"reduction of Aβ oligomer concentration (Aβ with Aβ) by sFIDA; human AD brain homogenate AD2 diluted 1:10, 0.31-20 μM RD2, 24 h",[1],93%
same,"reduction of Aβ oligomer concentration (Aβ with Aβ) by sFIDA; human AD brain homogenate AD2 diluted 1:20, 0.31-20 μM RD2, 24 h",[1],95%
same,"reduction of Aβ oligomer concentration (Aβ with Aβ) by sFIDA; human AD brain homogenate AD2 diluted 1:40, 0.31-20 μM RD2, 24 h",[1],96%
same,"decrease of Aβ oligomer concentration (Aβ with Aβ) by sFIDA; human AD brain homogenate AD2 diluted 1:20, 1.25-20 μM RD2, 0 to 1,365 min",[2],93%
same,"decrease of Aβ oligomer concentration (Aβ with Aβ) by sFIDA; human AD brain homogenate AD4 diluted 1:20, 1.25-20 μM RD2, 0 to about 23 h",[2],91%
same,"decrease of Aβ oligomer concentration (Aβ with Aβ) by sFIDA; human AD brain homogenate AD5 diluted 1:20, 1.25-20 μM RD2, 0 to about 23 h",[2],89%
same,"decrease of Aβ oligomer concentration (Aβ with Aβ) by sFIDA; human AD brain homogenate AD6 diluted 1:20, 1.25-20 μM RD2, 0 to 1,425 min",[2],90%
same,"reaction rate constant k (1,fast) of Aβ oligomer elimination by RD2 (global double exponential fit, effective RD2 1 and 16 μM); homogenate AD2 (L∗mol^−1∗min^−1)",[2],2330
same,"reaction rate constant k (1,fast) of Aβ oligomer elimination by RD2 (global double exponential fit, effective RD2 1 and 16 μM); homogenate AD4 (L∗mol^−1∗min^−1)",[2],2930
same,"reaction rate constant k (1,fast) of Aβ oligomer elimination by RD2 (global double exponential fit, effective RD2 1 and 16 μM); homogenate AD5 (L∗mol^−1∗min^−1)",[2],2370
same,"reaction rate constant k (1,fast) of Aβ oligomer elimination by RD2 (global double exponential fit, effective RD2 1 and 16 μM); homogenate AD6 (L∗mol^−1∗min^−1)",[2],1280
same,"reaction rate constant k (1,slow) of Aβ oligomer elimination by RD2 (global double exponential fit, effective RD2 1 and 16 μM); homogenate AD2 (L∗mol^−1∗min^−1)",[2],76
same,"reaction rate constant k (1,slow) of Aβ oligomer elimination by RD2 (global double exponential fit, effective RD2 1 and 16 μM); homogenate AD4 (L∗mol^−1∗min^−1)",[2],37
same,"reaction rate constant k (1,slow) of Aβ oligomer elimination by RD2 (global double exponential fit, effective RD2 1 and 16 μM); homogenate AD5 (L∗mol^−1∗min^−1)",[2],50
same,"reaction rate constant k (1,slow) of Aβ oligomer elimination by RD2 (global double exponential fit, effective RD2 1 and 16 μM); homogenate AD6 (L∗mol^−1∗min^−1)",[2],48
same,"reduction of Aβ oligomer concentration (Aβ with Aβ) by sFIDA; DGC fraction 10 of human AD brain homogenate AD2 diluted 1:10, 5 and 20 μM RD2, 0 to 1,380 min",[3],92%
same,"reduction of Aβ oligomer concentration (Aβ with Aβ) by sFIDA; DGC fraction 10 of human AD brain homogenate AD6 diluted 1:10, 5 and 20 μM RD2, 0 to 1,380 min",[3],88%
same,"reduction of Aβ oligomer concentration (Aβ with Aβ) by sFIDA; pooled DGC fractions 4 to 6 of human AD brain homogenate AD2, 20 μM RD2, 1,380 min",[3],64%
same,"reduction of Aβ oligomer concentration (Aβ with Aβ) by sFIDA; pooled DGC fractions 4 to 6 of human AD brain homogenate AD6, 20 μM RD2, 1,380 min",[3],62%
same,"reduction of Aβ oligomer concentration (Aβ with Aβ) by sFIDA; DGC fraction 10 of APP/PS1 mouse brain homogenate diluted 1:2, 0-50 μM RD2, 0 min to 20 h, 4 °C",[4],81%
